Test results taken from US9618511B2, “Methods and compositions for treating alzheimer's disease” (Eleanore Bennett Charitable Trust #2, priority 2008, dated 2017).

Target: T1, association between PDK1 and Akt1 (Mus musculus, UniProt Q9Z2A0)
T1 construct: These were relatively enriched with endogenous PDK; expressed in transfected cells; host or cells: mouse C2C12 myotubes infected with Adv WT-Akt; control C2C12 extracts as source of endogenous PDK1
T1 sequence (Q9Z2A0 1-559): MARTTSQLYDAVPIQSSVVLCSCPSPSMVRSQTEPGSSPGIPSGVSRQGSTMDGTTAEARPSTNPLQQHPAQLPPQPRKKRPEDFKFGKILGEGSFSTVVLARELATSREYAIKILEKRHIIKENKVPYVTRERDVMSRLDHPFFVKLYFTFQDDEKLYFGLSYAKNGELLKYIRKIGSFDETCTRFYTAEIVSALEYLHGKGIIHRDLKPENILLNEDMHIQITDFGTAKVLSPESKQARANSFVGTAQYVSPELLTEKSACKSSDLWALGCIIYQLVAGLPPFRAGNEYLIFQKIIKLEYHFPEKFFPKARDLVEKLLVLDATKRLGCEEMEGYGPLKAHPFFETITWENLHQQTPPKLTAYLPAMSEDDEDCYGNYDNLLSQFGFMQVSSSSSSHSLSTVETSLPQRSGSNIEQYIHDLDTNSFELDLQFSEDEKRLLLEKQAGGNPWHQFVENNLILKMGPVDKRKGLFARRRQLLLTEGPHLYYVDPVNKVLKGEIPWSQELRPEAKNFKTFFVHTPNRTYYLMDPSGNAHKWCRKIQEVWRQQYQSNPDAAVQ
Experiment: PDK and Akt1 interaction assay (cell extracts, IP/western pull-down)
Format: binding, mouse (C2C12 myotubes)
Details: for association between Akt and PDK1 (co-immunoprecipitation): 5 μM, mixed cell extracts, 30 min at 30° C.
Method: Accordingly, the effect of Aβ on PDK/Akt interactions may be evaluated in any suitable in vitro assay. In some embodiments, PDK1 may be prepared from extracts of mouse C2C12 myotube cultures. To increase the amount of available Akt, this protein may be prepared from C2C12 myotubes that had previously been infected with an adenovirus expressing wild type Akt (Adv-wtAkt). In some embodiments, to measure the interaction between these proteins, the cell extracts above were mixed for 30 minutes at 30° C. either in the presence or absence of added 5 μM Aβ1-42. […] The inability of PDK1 to interact with its target Akt led to a decrease in Akt activation and a loss of the subsequent downstream phosphorylations (e.g., GSK3β peptide as in FIGS. 3A and 3C, not shown).
For cell-based interaction studies, intracellular Aβ42 production was induced by infecting C2C12 myotubes with Adv Aβ/TetOn. These cell extracts (100 μg) were used to IP endogenous Akt, and from this pull-down, determine the levels of associated PDK by western blot. The in vitro interaction study involved first enriching for Akt through viral-mediated expression of WT-Akt. Akt-enriched/PDK-depleted extract was then prepared by removing the PDK, via immunoprecipitation, from the Akt-enriched cell extract. Akt-depleted extracts were prepared from control extracts by pre-immunoprecipitating Akt. These were relatively enriched with endogenous PDK. The enrichments and depletions were confirmed by western blot analysis. The interaction assay contained a mixture of 100 μg Akt-enriched and 100 μg control cell extract in the presence or absence of Aβ42 (up to 10 μM). The mixtures were incubated for 30 minutes at 30° C., followed by overnight incubation at 4° C. with goat anti-Akt1. Protein G beads were added with mixing for 1.5 hr. PDK1 and Akt1 levels were determined by western blot. In control experiments, 100 μg of Akt-enriched, PDK-depleted extract and 100 μg of a control extract depleted for Akt were mixed in the presence or absence of Aβ42 (up to 5 μM) and subjected to the same analyses.

Substance: Aβ42: synthetic 42 amino acid β-amyloid peptide, forward sequence, freshly prepared, predominantly monomeric (BioSource)
- association between Akt and PDK1 (co-immunoprecipitation): pulled-down less PDK
- association between Akt and PDK1 (co-immunoprecipitation) (listed as Aβ1-42): dramatic reduction
- pull-down of PDK1 with Akt1 (10 μM, Akt-enriched plus control extracts): abrogated
